Consider 18 molecules from patent publication US20240101683A1 (published 2024).

The target in assay [1] is T1, Human FGFR2βIIIb (human, UniProt P21802-21 22-263, limits assumed).
T1 construct: Construct used in the ELISA (tag, Fc, limits) is not described
Briefly: ELISA, coated antigen, anti-Fab HRP.

Assay [2] addresses T2, Murine FGFR2IIIb (murine, UniProt P21803-2 22-263, limits assumed).
T2 construct: Construct used in the ELISA is not described
Briefly: ELISA, coated antigen, anti-Fab HRP.

In assay [3] the target is T3, rhFGFR2IIIb-Fc (recombinant human FGFR2IIIb-Fc) (human, UniProt P21802-3 22-378, limits assumed).
T3 construct: Coated on the ELISA plate at 2 ug/mL; not shown: Fc part
T3 sequence (P21802 other isoform, or with tags, fused parts or gaps limits assumed): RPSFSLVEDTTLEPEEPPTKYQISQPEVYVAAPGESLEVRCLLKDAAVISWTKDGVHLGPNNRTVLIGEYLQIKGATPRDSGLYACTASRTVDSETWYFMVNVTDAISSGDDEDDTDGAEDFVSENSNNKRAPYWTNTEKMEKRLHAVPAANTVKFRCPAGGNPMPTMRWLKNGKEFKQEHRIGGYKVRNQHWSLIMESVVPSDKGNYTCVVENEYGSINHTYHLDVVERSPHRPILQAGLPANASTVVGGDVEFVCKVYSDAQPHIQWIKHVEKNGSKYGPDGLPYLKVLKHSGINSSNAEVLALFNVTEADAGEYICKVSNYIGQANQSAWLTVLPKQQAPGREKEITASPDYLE
As to the kind of experiment: ELISA, coated rhFGFR2IIIb-Fc, anti-Fab HRP.

T2 sequence (P21803 other isoform, or with tags, fused parts or gaps limits assumed): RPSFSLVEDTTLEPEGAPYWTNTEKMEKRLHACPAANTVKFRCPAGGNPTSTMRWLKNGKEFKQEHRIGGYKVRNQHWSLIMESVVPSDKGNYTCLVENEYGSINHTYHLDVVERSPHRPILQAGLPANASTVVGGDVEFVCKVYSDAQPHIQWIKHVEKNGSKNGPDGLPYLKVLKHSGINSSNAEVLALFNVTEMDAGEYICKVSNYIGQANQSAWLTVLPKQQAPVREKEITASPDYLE
T1 sequence (P21802 other isoform, or with tags, fused parts or gaps limits assumed): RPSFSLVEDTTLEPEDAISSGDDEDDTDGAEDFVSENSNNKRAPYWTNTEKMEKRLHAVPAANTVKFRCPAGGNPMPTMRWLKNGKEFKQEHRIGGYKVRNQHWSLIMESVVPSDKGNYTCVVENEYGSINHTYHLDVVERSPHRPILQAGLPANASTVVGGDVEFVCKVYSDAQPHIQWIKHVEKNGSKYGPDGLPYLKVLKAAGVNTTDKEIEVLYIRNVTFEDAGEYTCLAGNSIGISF

B1: FWB1904 (antibody, V domains shown)
VH: QVQLVQSGAEVKKPGSSVKVSCKASGYIFTSYNVHWVRQAPGQGLEWIGSIYPDNGDTSYNQNFRGRATITADKSTSTAYMELSSLRSEDTAVYYCARGDFAYWGQGTLVTVSS
VL: DIQMTQSPSSLSASVGDRVTITCKASNGISNDIAWYQQKPGKAPKLLIYSASYRYSGVPSRFSGSGSGTDFTFTISSLQPEDIATYYCQQHSTTPYTFGQGTKLEIK
On to B1, for which the concentration giving a half-maximal response (EC50) in assay [1] worked out at 0.163 nM; in assay [2], 0.308 nM; in assay [3] it was 0.351 nM.

B2: FWB1913 (antibody, V domains shown)
VH: QVQLVQSGAEVKKPGSSVKVSCKASGYIFTSYNVHWVRQAPGQGLEWIGSIYPDNGDSSYNQNYKGRATITADKSTSTAYMELSSLRSEDTAVYYCARGDYAYWGQGTLVTVSS
VL: DIQMTQSPSSLSASVGDRVTITCKASNGVSNDIAWYQQKPGKAPKLLIYSASYRYSGVPSRFSGSGSGTDFTFTISSLQPEDIATYYCQQHSTTPYSFGQGTKLEIK
As to B2, the values for the EC50 in assay [1], in assay [2] and in assay [3] were 0.196 nM, 0.296 nM and 0.903 nM, respectively.

B3: FWB1922 (antibody, V domains shown)
VH: QVQLVQSGAEVKKPGSSVKVSCKASGYIFTSYNVHWVRQAPGQGLEWIGSIYPDNGDSTYNQNYRGRATITADKSTSTAYMELSSLRSEDTAVYYCARGDFAYWGQGTLVTVSS
VL: DIQMTQSPSSLSASVGDRVTITCKGSNGISNDIAWYQQKPGKAPKLLIYSASYRYSGVPSRFSGSGSGTDFTFTISSLQPEDIATYYCQQHSTTPYTFGQGTKLEIK
B3: the EC50 in assay [1] is 0.215 nM; in assay [2], 0.139 nM; in assay [3] it was 0.656 nM.

B4: FWB1908 (antibody, V domains shown)
VH: QVQLVQSGAEVKKPGSSVKVSCKASGYIFTTYNVHWVRQAPGQGLEWIGSIYPDNGDSTYNQNFKGRATITADKSTSTAYMELSSLRSEDTAVYYCARGDFAYWGQGTLVTVSS
VL: DIQMTQSPSSLSASVGDRVTITCKGSQGVSNDVAWYQQKPGKAPKLLIYSASYRYTGVPSRFSGSGSGTDFTFTISSLQPEDIATYYCQQHSTTPYTFGQGTKLEIK
For B4, the results for the EC50 in assay [1], in assay [2] and in assay [3] were 0.126 nM, 0.225 nM and 0.281 nM, respectively.

B5: FWB1910 (antibody, V domains shown)
VH: QVQLVQSGAEVKKPGSSVKVSCKASGYIFTTYNVHWVRQAPGQGLEWIGSIYPDNGDTSYDEDFKGRATITADKSTSTAYMELSSLRSEDTAVYYCARGDFAYWGQGTLVTVSS
VL: DIQMTQSPSSLSASVGDRVTITCKVSQGVSNDAVWYQQKPGKAPKLLIYSASYRYTGVPSRFSGSGSGTDFTFTISSLQPEDIATYYCQQHSTTPYTFGQGTKLEIK
Consider B5, for which the 50% effective concentration (EC50) in assay [1] stood at 0.21 nM; in assay [2], 0.295 nM; in assay [3] it was 0.279 nM.

B6: FWB1923 (antibody, V domains shown)
VH: QVQLVQSGAEVKKPGSSVKVSCKASGYIFTSYNVHWVRQAPGQGLEWIGSIYPDNGDSTYDEDFKGRATITADKSTSTAYMELSSLRSEDTAVYYCARGDFAYWGQGTLVTVSS
VL: DIQMTQSPSSLSASVGDRVTITCKVSQGVSNDAVWYQQKPGKAPKLLIYSASYRYSGVPSRFSGSGSGTDFTFTISSLQPEDIATYYCQQHSTTPYTFGQGTKLEIK
Take B6: the EC50 in assay [3] came out at 1.68 nM.

B7: FWB1912 (antibody, V domains shown)
VH: QVQLVQSGAEVKKPGSSVKVSCKASGYIFTSYNVHWVRQAPGQGLEWIGSIYPDNGDSSYNQNYKGRATITADKSTSTAYMELSSLRSEDTAVYYCARGDYAYWGQGTLVTVSS
VL: DIQMTQSPSSLSASVGDRVTITCKASNGVSNDIAWYQQKPGKAPKLLIYSASYRYSGVPSRFSGSGSGTDFTFTISSLQPEDIATYYCQQHSTTPYTFGQGTKLEIK
Turning to B7, the figures for the 50% effective concentration (EC50) in assay [1], in assay [2] and in assay [3] were 0.207 nM, 0.293 nM and 0.724 nM, respectively.

B8: FWB1905 (antibody, V domains shown)
VH: QVQLVQSGAEVKKPGSSVKVSCKASGYIFTSYNVHWVRQAPGQGLEWIGSIYPDNGDSSYNQNYKGRATITADKSTSTAYMELSSLRSEDTAVYYCARGDFAYWGQGTLVTVSS
VL: DIQMTQSPSSLSASVGDRVTITCKASNGVSNDIAWYQQKPGKAPKLLIYSASYRYSGVPSRFSGSGSGTDFTFTISSLQPEDIATYYCQQHSTTPYTFGQGTKLEIK
On to B8, for which the 50% effective concentration (EC50) in assay [1] is 0.173 nM; in assay [2] it was 0.262 nM; in assay [3] it was 0.298 nM.

B9: FWB1914 (antibody, V domains shown)
VH: QVQLVQSGAEVKKPGSSVKVSCKASGYIFTSYNVHWVRQAPGQGLEWIGSIYPDNGDSSYNNNYKGRATITADKSTSTAYMELSSLRSEDTAVYYCARGDFAYWGQGTLVTVSS
VL: DIQMTQSPSSLSASVGDRVTITCKASNGVSNDIAWYQQKPGKAPKLLIYSASYRYSGVPSRFSGSGSGTDFTFTISSLQPEDIATYYCQQHSTTPYTFGQGTKLEIKR
Turning to B9, the EC50 in assay [1] amounted to 0.203 nM; in assay [2], 0.25 nM; in assay [3], 1.01 nM.

B10: FWB1918 (antibody, V domains shown)
VH: QVQLVQSGAEVKKPGSSVKVSCKASGYIFTSYNVHWVRQAPGQGLEWIGSIYPDNGDSSYNQNFRGRATITADKSTSTAYMELSSLRSEDTAVYYCARGDFAYWGQGTLVTVSS
VL: DIQMTQSPSSLSASVGDRVTITCKGSNGISNDIAWYQQKPGKAPKLLIYSASYRYSGVPSRFSGSGSGTDFTFTISSLQPEDIATYYCQQHSTTPYTFGQGTKLEIK
Regarding B10, the half-maximal effective concentration (EC50) worked out at 0.135 nM in assay [1], 0.27 nM in assay [2] and 0.626 nM in assay [3].

B11: FWB1907 (antibody, V domains shown)
VH: QVQLVQSGAEVKKPGSSVKVSCKASGYIFTSYNVNWVRQAPGQGLEWIGSIYPDNGDSSYNNNYKGRATITADKSTSTAYMELSSLRSEDTAVYYCARGDFAYWGQGTLVTVSS
VL: DIQMTQSPSSLSASVGDRVTITCRASNGISNDIAWYQQKPGKAPKLLIYSASYRYSGVPSRFSGSGSGTDFTFTISSLQPEDIATYYCQQHSTTPYTFGQGTKLEIK
On to B11, for which the EC50 was 0.262 nM in assay [1], 5.9 nM in assay [2] and 1.06 nM in assay [3].

B12: FWB1915 (antibody, V domains shown)
VH: QVQLVQSGAEVKKPGSSVKVSCKASGYIFTSYNVHWVRQAPGQGLEWIGSIYPDNGDSSYDEDYKGRATITADKSTSTAYMELSSLRSEDTAVYYCARGDFAYWGQGTLVTVSS
VL: DIQMTQSPSSLSASVGDRVTITCKASNGVSNDIAWYQQKPGKAPKLLIYSASYRYSGVPSRFSGSGSGTDFTFTISSLQPEDIATYYCQQHSTTPYTFGQGTKLEIK
As to B12, the figures for the EC50 in assay [1], in assay [2] and in assay [3] were 0.185 nM, 0.273 nM and 0.877 nM, respectively.

B13: FWB1911 (antibody, V domains shown)
VH: QVQLVQSGAEVKKPGSSVKVSCKASGYIFTSYNVHWVRQAPGQGLEWIGSIYPDNGDSSYNQNYKGRATITADKSTSTAYMELSSLRSEDTAVYYCARGDFAYWGQGTLVTVSS
VL: DIQMTQSPSSLSASVGDRVTITCKASNGVSNDIAWYQQKPGKAPKLLIYSASYRYSGVPSRFSGSGSGTDFTFTISSLQPEDIATYYCQQHSTTPYSFGQGTKLEIK
In the case of B13, the EC50 was determined as 0.246 nM in assay [1], 0.338 nM in assay [2] and 0.697 nM in assay [3].

B14: FWB1924 (antibody, V domains shown)
VH: QVQLVQSGAEVKKPGSSVKVSCKASGYIFTSYNVHWVRQAPGQGLEWIGSLYPDNGDTSYDEDYKGRATITADKSTSTAYMELSSLRSEDTAVYYCARGDFAYWGQGTLVTVSS
VL: DIQMTQSPSSLSASVGDRVTITCKVSQGVSNDAVWYQQKPGKAPKLLIYSASYRYSGVPSRFSGSGSGTDFTFTISSLQPEDIATYYCQQHSTTPYTFGQGTKLEIK
In the case of B14, the EC50 in assay [3] stood at 1.89 nM.

B15: FWB1920 (antibody, V domains shown)
VH: QVQLVQSGAEVKKPGSSVKVSCKASGYIFTSYNIHWVRQAPGQGLEWIGSIYPDNGDSSYNQNYRGRATITADKSTSTAYMELSSLRSEDTAVYYCARGDFAYWGQGTLVTVSS
VL: DIQMTQSPSSLSASVGDRVTITCKGSNGVSNDIAWYQQKPGKAPKLLIYSASYRYSGVPSRFSGSGSGTDFTFTISSLQPEDIATYYCQQHSTTPYTFGQGTKLEIK
With B15, the figures for the EC50 in assay [1], in assay [2] and in assay [3] were 0.153 nM, 0.274 nM and 1.21 nM, respectively.

B16: FWB1916 (antibody, V domains shown)
VH: QVQLVQSGAEVKKPGSSVKVSCKASGYIFTSYNVHWVRQAPGQGLEWIGSIYPDNGDSSYNQNYKGRATITADKSTSTAYMELSSLRSEDTAVYYCARGDFAYWGQGTLVTVSS
VL: DIQMTQSPSSLSASVGDRVTITCKASNGISNDIAWYQQKPGKAPKLLIYSASYRYSGVPSRFSGSGSGTDFTFTISSLQPEDIATYYCQQHSTTPYTFGQGTKLEIK
In the case of B16, the EC50 in assay [1] stood at 0.143 nM; in assay [2], 0.29 nM; in assay [3], 0.582 nM.

B17: FWB1919 (antibody, V domains shown)
VH: QVQLVQSGAEVKKPGSSVKVSCKASGYIFTSYNVHWVRQAPGQGLEWIGSIYPDNGDSSYNQNYRGRATITADKSTSTAYMELSSLRSEDTAVYYCARGDFAYWGQGTLVTVSS
VL: DIQMTQSPSSLSASVGDRVTITCRGSNGISNDIAWYQQKPGKAPKLLIYSASYRYSGVPSRFSGSGSGTDFTFTISSLQPEDIATYYCQQHSTTPYTFGQGTKLEIK
In the case of B17, the concentration for a half-maximal effect (EC50) is 0.149 nM in assay [1], 0.314 nM in assay [2] and 0.879 nM in assay [3].

B18: FWB1921 (antibody, V domains shown)
VH: QVQLVQSGAEVKKPGSSVKVSCKASGYIFTSYNVHWVRQAPGQGLEWIGSIYPDNGDSTYNQNYRGRATITADKSTSTAYMELSSLRSEDTAVYYCARGDFAYWGQGTLVTVSS
VL: DIQMTQSPSSLSASVGDRVTITCKGSNGVSNDIAWYQQKPGKAPKLLIYSASYRYSGVPSRFSGSGSGTDFTFTISSLQPEDIATYYCQQHSTTPYTFGQGTKLEIK
In the case of B18, the EC50 in assay [1] was 0.176 nM; in assay [2], 0.261 nM; in assay [3], 0.621 nM.
